Measurements taken from patent US8202695 (TUFTS UNIVERSITY, dated 2012).

Molecular target: the molecule itself
Assay: X-ray crystals of CodY grown with GTP, with isoleucine and valine, or without effectors

B1: Bacillus subtilis CodY protein (other, UniProt P39779 2-259, looked up)
chain: ALLQKTRIINSMLQAAAGKPVNFKEMAETLRDVIDSNIFVVSRRGKLLGYSINQQIENDRMKKMLEDRQFPEEYTKNLFNVPETSSNLDINSEYTAFPVENRDLFQAGLTTIVPIIGGGERLGTLILSRLQDQFNDDDLILAEYGATVVGMEILREKAEEIEEEARSKAVVQMAISSLSYSELEAIEHIFEELDGNEGLLVASKIADRVGITRSVIVNALRKLESAGVIESRSLGMKGTYIKVLNNKFLIELENLKSH
notes: For crystallization, B. subtilis CodY was overproduced in E. coli with a C-terminal or an N-terminal 6xHis tag; also called purified CodY protein
binding result: binds
